# Results reported in IntAct's records for PubMed 7877691.
# B1: Retinoblastoma-associated protein (Homo sapiens), P06400 (parent)
# chain: MPPKTPRKTAATAAAAAAEPPAPPPPPPPEEDPEQDSGPEDLPLVRLEFEETEEPDFTALCQKLKIPDHVRERAWLTWEKVSSVDGVLGGYIQKKKELWGICIFIAAVDLDEMSFTFTELQKNIEISVHKFFNLLKEIDTSTKVDNAMSRLLKKYDVLFALFSKLERTCELIYLTQPSSSISTEINSALVLKVSWITFLLAKGEVLQMEDDLVISFQLMLCVLDYFIKLSPPMLLKEPYKTAVIPINGSPRTPRRGQNRSARIAKQLENDTRIIEVLCKEHECNIDEVKNVYFKNFIPFMNSLGLVTSNGLPEVENLSKRYEEIYLKNKDLDARLFLDHDKTLQTDSIDSFETQRTPRKSNLDEEVNVIPPHTPVRTVMNTIQQLMMILNSASDQPSENLISYFNNCTVNPKESILKRVKDIGYIFKEKFAKAVGQGCVEIGSQRYKLGVRLYYRVMESMLKSEEERLSIQNFSKLLNDNIFHMSLLACALEVVMATYSRSTSQNLDSGTDLSFPWILNVLNLKAFDFYKVIESFIKAEGNLTREMIKHLERCEHRIMESLAWLSDSPLFDLIKQSKDREGPTDHLESACPLNLPLQNNHTAADMYLSPVRSPKKKGSTTRVNSTANAETQATSAFQTQKPLKSTSLSLFYKKVYRLAYLRLNTLCERLLSEHPELEHIIWTLFQHTLQNEYELMRDRHLDQIMMCSMYGICKVKNIDLKFKIIVTAYKDLPHAVQETFKRVLIKEEEYDSIIVFYNSVFMQRLKTNILQYASTRPPTLSPIPHIPRSPYKFPSSPLRIPGGNIYISPLKSPYKISEGLPTPTKMTPRSRILVSIGESFGTSEKFQKINQMVCNSDRVLKRSAEGSNPPKPLKKLRFDIEGSDEADGSKHLPGESKFQQKLAEMTSTRTRMQKQKMNDSMDTSNKEEK
# partner: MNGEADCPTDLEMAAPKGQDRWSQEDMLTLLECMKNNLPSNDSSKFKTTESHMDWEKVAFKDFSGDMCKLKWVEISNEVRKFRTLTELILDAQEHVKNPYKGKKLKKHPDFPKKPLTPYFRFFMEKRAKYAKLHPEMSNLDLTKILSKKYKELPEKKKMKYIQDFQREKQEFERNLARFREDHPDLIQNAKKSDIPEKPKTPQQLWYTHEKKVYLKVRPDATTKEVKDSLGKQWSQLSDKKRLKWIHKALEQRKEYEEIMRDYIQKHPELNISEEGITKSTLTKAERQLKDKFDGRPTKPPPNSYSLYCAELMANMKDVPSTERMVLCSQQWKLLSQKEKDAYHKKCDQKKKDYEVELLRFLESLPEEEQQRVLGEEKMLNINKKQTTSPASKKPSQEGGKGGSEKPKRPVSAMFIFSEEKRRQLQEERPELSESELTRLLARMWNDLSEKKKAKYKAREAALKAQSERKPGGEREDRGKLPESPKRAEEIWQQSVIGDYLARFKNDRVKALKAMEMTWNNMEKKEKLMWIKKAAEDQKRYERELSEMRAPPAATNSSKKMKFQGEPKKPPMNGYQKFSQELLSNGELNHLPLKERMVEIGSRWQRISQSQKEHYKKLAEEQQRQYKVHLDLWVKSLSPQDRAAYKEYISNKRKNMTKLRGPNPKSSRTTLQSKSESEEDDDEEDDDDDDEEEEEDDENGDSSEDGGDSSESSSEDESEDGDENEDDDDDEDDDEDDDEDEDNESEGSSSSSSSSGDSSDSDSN
# Variants of: B1
# Conditions: with ubf1_rat Ubtf
row,effect of a mutation on the interaction,Variant
1,disrupting interaction,C706F
